The supplement of paper PMC10724198
± gives the standard deviation of the averaged measurements.

Tested on: Saccharomyces cerevisiae
Assay: protein stability index of tFT-peptide fusion (C-terminal peptide) (PSI (0-1 scale)); higher = more stable (slower turnover)
Details: genetic background: wild type; temperature: 30 C
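Further: PSI is a weighted mean of sequencing reads over stability bins, variants kept only with over 10 reads, mCherry proximal and sfGFP distal, peptide attached via GGGS linker.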

Row | Sequence | protein stability index
1 | PPGPPLPRPRRP | 0.694 ± 0.043
2 | SPPLFCSPPISP | 0.719 ± 0.043
3 | KHDIEYRTQIKK | 0.662 ± 0.033
4 | PPFLDLSLPHIC | 0.589 ± 0.016
5 | RRVPTDQYRLLE | 0.696 ± 0.027
6 | LLPNLFDSQFRE | 0.756 ± 0.044
7 | EVIRFMEKLPFR | 0.589 ± 0.025
8 | MRSTFFFLQHRH | 0.614 ± 0.013
9 | YRPPPLSPPSPP | 0.695 ± 0.013
10 | IQRIPSGSGRVR | 0.736 ± 0.058
11 | PHPHLPPARSPP | 0.675 ± 0.019
12 | SSALPPLLAFFL | 0.6808 ± 0.0046
13 | HRRASYVLSPLS | 0.7413 ± 0.0073
14 | APVLSVSFFSFL | 0.718 ± 0.013
15 | LKYEGPKYHMKR | 0.691 ± 0.061
16 | KKFRKGKKNKRK | 0.657 ± 0.03
17 | IGLRVLSNSYEV | 0.694 ± 0.031
18 | ARSQTGRTYFSP | 0.694 ± 0.062
19 | EGGGGVEGAAWG | 0.694 ± 0.022
20 | YSIAYGVLWRYR | 0.5687 ± 0.0051
21 | WGVCGVFLCLGV | 0.572 ± 0.11
22 | GWGGGEGVEGEP | 0.678 ± 0.048
23 | PPRPPPLPPSPP | 0.685 ± 0.094
24 | LSLSPPPASPIP | 0.692 ± 0.011
25 | SFPAPPSPPPLP | 0.702 ± 0.081
26 | HGLESMNRYRWI | 0.555 ± 0.016

Row | Sequence | protein stability index
27 | TRCRLRETISRR | 0.651 ± 0.067
28 | CASGPLQPLPRA | 0.753 ± 0.084
29 | ADLEQTWRYRLD | 0.674 ± 0.031
30 | RGFLHVRCRDTC | 0.7049 ± 0.0011
31 | ACLYDSMSVSSK | 0.6386 ± 0.0012
32 | PAFGLSPPSFST | 0.728 ± 0.089
33 | APVGTPARPSLS | 0.725 ± 0.016
34 | PIPLPLSPPLPT | 0.73 ± 0.011
35 | PAPPPHIPPSPS | 0.651 ± 0.023
36 | LPIPCPSPPPPR | 0.708 ± 0.052
37 | SGASFLKVGLSV | 0.6812 ± 0.0032
38 | RRRLLCVCDLMM | 0.576 ± 0.038
39 | NTEKNKRDRYQK | 0.722 ± 0.019
40 | SLLLSRPLSTSH | 0.6945 ± 0.0031
41 | IGTKKVINDKLL | 0.675 ± 0.028
42 | TSMRRWSGRYGG | 0.743 ± 0.075
43 | SHPTLCSFSPPA | 0.686 ± 0.035
44 | VPAVGGFLMFIG | 0.638 ± 0.0094
45 | KNRENNTKIEIQ | 0.661 ± 0.014
46 | DDWNLQEAQSLY | 0.703 ± 0.053
47 | AVGLGARHRVAW | 0.688 ± 0.016
48 | AAYGCSGGEVGW | 0.68 ± 0.025
49 | YDELEKADKQEE | 0.6723 ± 0.0061
50 | IRGGSRLPFYSS | 0.731 ± 0.013
51 | PPPPRRPPPAPF | 0.6935 ± 0.0022
52 | SERKAKAEVAEA | 0.692 ± 0.064

Row | Sequence | protein stability index
53 | LYDQTSQDRRVF | 0.6974 ± 0.004
54 | FMVIRVGGWGVL | 0.646 ± 0.094
55 | LPQAVPCRTPPL | 0.679 ± 0.054
56 | LEVVVVGGVGGG | 0.687 ± 0.085
57 | FPASPQAPPPLP | 0.65377 ± 0.00019
58 | PLPPHRLPYPRL | 0.81 ± 0.025
59 | RSTRLPGFNRRE | 0.662 ± 0.0062
60 | PPVPPPPRLPRP | 0.727 ± 0.019
61 | GGVSGQLLRSHG | 0.682 ± 0.0027
62 | PLPSPPSPPPPP | 0.693 ± 0.0091
63 | EGINVEICISLL | 0.573 ± 0.083
64 | RGFGFAYVSEHI | 0.708 ± 0.075
65 | GPPPPPPPRPPP | 0.634 ± 0.007
66 | ESLAKLPLRRPR | 0.63 ± 0.011
67 | VGELGVFAPGGK | 0.5 ± 0.1
68 | ACGGVWASGRGG | 0.705 ± 0.017
69 | SDKNNRFGRVRV | 0.674 ± 0.072
70 | ACDGIRRPVRGG | 0.697 ± 0.059
71 | DGGSGQGMFGGS | 0.611 ± 0.039
72 | DVVGRGRGPVRL | 0.802 ± 0.033
73 | RRAGRGGIGKGG | 0.591 ± 0.018
74 | DFSNDCLRVLGD | 0.673 ± 0.021
75 | SSGSLITIASPF | 0.745 ± 0.024
76 | WGRGWWEMVGRT | 0.686 ± 0.0074
77 | VRVGRGGKELND | 0.576 ± 0.11
78 | HLDVRGTRRMGT | 0.669 ± 0.042

Row | Sequence | protein stability index
79 | LPRLSPSPRPSR | 0.719 ± 0.008
80 | PPALPPVPPYPL | 0.673 ± 0.073
81 | LKKSEKLSNKII | 0.644 ± 0.041
82 | QKKELQKQKIAK | 0.683 ± 0.015
83 | RCWVTVIRSVRS | 0.601 ± 0.067
84 | EKKKKENKVKRF | 0.664 ± 0.013
85 | HLGPPPGRVFAV | 0.6194 ± 0.0052
86 | LGVGGRWVAPGA | 0.678 ± 0.094
87 | GKILKGAASPSC | 0.72 ± 0.019
88 | HPPTLCPLSRRH | 0.659 ± 0.047
89 | CPPRPCTASIVR | 0.632 ± 0.036
90 | KKLGLINITIRV | 0.535 ± 0.017
91 | LLFPSPPLPPPL | 0.784 ± 0.15
92 | PFLHPSSPPSPT | 0.698 ± 0.036
93 | SSPGFCRVFVFF | 0.491 ± 0.018
94 | GCWGAGESTLGG | 0.724 ± 0.0084
95 | GCWGEWGWVGRG | 0.696 ± 0.035
96 | HQKQCRSNRHRG | 0.657 ± 0.05
97 | FGDPRRTDPLRL | 0.631 ± 0.04
98 | KTCGVGLDRMIG | 0.714 ± 0.0099
99 | SRAARLLPKLLI | 0.589 ± 0.055
100 | VDPAPPRRPPRY | 0.694 ± 0.097
101 | RITMNMHSLIIP | 0.711 ± 0.032
102 | PSLPWSGPPVPC | 0.664 ± 0.013
103 | GLCSMRLYKPRI | 0.634 ± 0.014
104 | WVGSGRVWVKLG | 0.708 ± 0.0092

Row | Sequence | protein stability index
105 | PLSLPAPPPRPR | 0.654 ± 0.017
106 | GVFVVEWSGGEG | 0.586 ± 0.064
107 | RGPTGEDLCSAM | 0.696 ± 0.032
108 | QWGGWGVGRIEG | 0.629 ± 0.069
109 | RKEGRGEEPEKG | 0.65 ± 0.049
110 | HPTRPHLPPFAP | 0.681 ± 0.066
111 | GVAGRRGQRDVR | 0.746 ± 0.088
112 | FLPHPSPDPLPP | 0.588 ± 0.12
113 | GWSCGGVGGGLG | 0.71 ± 0.04
114 | KERLLTLHSHSH | 0.71 ± 0.037
115 | SIPSPLVPPLTR | 0.72 ± 0.04
116 | PHPPPPHPPPPP | 0.644 ± 0.027
117 | GGGRGTGVEFGA | 0.7 ± 0.03
118 | ERRKKKRGQETQ | 0.655 ± 0.12
119 | PNFSLPSLPHFP | 0.747 ± 0.017
120 | SRPPLLLLSSGA | 0.6583 ± 0.0059
121 | FDVYIKVRGGDI | 0.64 ± 0.024
122 | PFAVKYIFEVWK | 0.591 ± 0.028
123 | RKLNRKEKLQLT | 0.646 ± 0.051
124 | LPGGLSPPPFRI | 0.715 ± 0.064
125 | FVGSSFELRLPG | 0.692 ± 0.057
126 | KSEKKKKRKEKK | 0.718 ± 0.052
127 | RWGGRTASVPCG | 0.754 ± 0.015
128 | GSLWGGFFRGLL | 0.70105 ± 0.00018
129 | TGVRSAEAKRKQ | 0.579 ± 0.05
130 | IPGHRHTKRIFG | 0.641 ± 0.012

Row | Sequence | protein stability index
131 | CGLCLGGEWLVG | 0.701 ± 0.026
132 | LKPPEDPCASRV | 0.677 ± 0.021
133 | RKAEWIKQYDMH | 0.479 ± 0.072
134 | YTSTPTLYTRLW | 0.689 ± 0.014
135 | CGGSLGAPVLVG | 0.588 ± 0.042
136 | GGSGLRCCREMG | 0.681 ± 0.022
137 | QQNKKKKTRKSG | 0.704 ± 0.046
138 | PSRPPPARSSPP | 0.652 ± 0.0069
139 | GPFWPGRFGFLC | 0.616 ± 0.0078
140 | PSHGSRPSPPLR | 0.676 ± 0.034
141 | GASSLGVNGGSV | 0.6954 ± 0.0021
142 | AGLGWGARQGAL | 0.67 ± 0.019
143 | PPDPPLHPPPSS | 0.733 ± 0.13
144 | KLVKWEGGYIVS | 0.61 ± 0.019
145 | TGSGQVSREERS | 0.671 ± 0.036
146 | LPPSPPDPTPPP | 0.594 ± 0.0095
147 | PPPPPSLACPPP | 0.688 ± 0.037
148 | SPDCSLSPSVSG | 0.684 ± 0.029
149 | PDGREQLVNGVT | 0.6359 ± 0.0019
150 | PPLPPPPPLLPP | 0.6764 ± 0.0065
151 | PPSLRPSSSPPI | 0.724 ± 0.022
152 | FLFCSYHSPLSF | 0.7 ± 0.036
153 | NHRQPNSTKNRT | 0.547 ± 0.044
154 | NGVRGRGGQWVQ | 0.725 ± 0.03
155 | YCHLNLHGCKGC | 0.636 ± 0.023
156 | VRALGRDGIRQC | 0.602 ± 0.015

Row | Sequence | protein stability index
157 | LLNAARIGNKGP | 0.663 ± 0.06
158 | TAPPSISYVQAF | 0.639 ± 0.021
159 | PPSPDPPPPDLS | 0.649 ± 0.017
160 | ERGGLGLSRCVS | 0.663 ± 0.077
161 | PLPPPPPPSFPP | 0.769 ± 0.057
162 | GIGCMVYKGGFQ | 0.6977 ± 0.0011
163 | YFFDYGVSRVLS | 0.584 ± 0.015
164 | AVQSEFGVGFSM | 0.736 ± 0.04
165 | GDSESRTWCQNL | 0.548 ± 0.02
166 | KSEGKKHIDKKR | 0.63 ± 0.034
167 | DGARECRDDVCS | 0.675 ± 0.017
168 | EMGGLKACRGGG | 0.553 ± 0.026
169 | RKIERKHIKEFS | 0.664 ± 0.0089
170 | RGWDEHRVGSEY | 0.671 ± 0.095
171 | ARTRRPTPGRPI | 0.719 ± 0.066
172 | STSSNGVGLPRL | 0.901 ± 0.11
173 | SSRGVTRRRLRE | 0.724 ± 0.15
174 | EYFLGPLVRLGR | 0.762 ± 0.11
175 | CGPGGFGGERVG | 0.73 ± 0.058
176 | VVVGSITRLGLW | 0.6908 ± 0.00074
177 | PFPSPPSPPSPL | 0.817 ± 0.11
178 | IAEWVRLIVGEG | 0.671 ± 0.015
179 | RSSYTLLLPPLR | 0.624 ± 0.0074
180 | KINELGYMNLKM | 0.716 ± 0.013
181 | LHPSPPSPLPPP | 0.723 ± 0.028
182 | SKKNKNIQKHLY | 0.728 ± 0.011

Row | Sequence | protein stability index
183 | EAGRRVGARRVG | 0.689 ± 0.059
184 | GVPVGVDSFHGV | 0.66848 ± 4.1e-05
185 | VVVSRARSSRSS | 0.6332 ± 0.0021
186 | ATLCVVSKLGLC | 0.589 ± 0.0069
187 | PRSPPHLRWTRY | 0.686 ± 0.013
188 | YNKKKKRYKKKF | 0.72 ± 0.0076
189 | KKKKKNKKENAE | 0.742 ± 0.086
190 | LPPTAPAPPSPP | 0.716 ± 0.086
191 | LAARHLNFPPIL | 0.711 ± 0.009
192 | SLPAFPPNTFMP | 0.7 ± 0.017
193 | IILVVLSRLYVI | 0.5644 ± 0.003
194 | NEPQDQLQEQAT | 0.665 ± 0.069
195 | GNDRRKNNICEI | 0.701 ± 0.034
196 | MGGGGARAVVVG | 0.627 ± 0.021
197 | SPFGFPPPSPPA | 0.6843 ± 0.003
198 | PSAASIFLPFPL | 0.733 ± 0.048
199 | CPALSPSPTLAS | 0.68 ± 0.15
200 | KELNRRTNSPSE | 0.644 ± 0.046
201 | WGGVGLRGGWDG | 0.713 ± 0.047
202 | FLSLSLFPFSSL | 0.698 ± 0.024
